{
  "source": "paper PMC3037030",
  "proteins": {"B1": {"name": "Acsl3 (Rattus norvegicus) (protein)", "chain": "MNNHVSSTPSTMKLKQTIHPILLYFIHFIISLYTILTYIPFYFLCESKQEKPNHIKAKPVSSKPDSAYRSVNSMDGLASVLYPGCDTLDKVFMYAKNKFKDKRLLGTREILNEEDEIQPNGKVFKKVILGHYNWLSYEDVFIRALDFGNGLQMLGQKPKANIAIFCETRAEWMIAAQACFMYNFQLVTLYATLGGPAIVHGLNETEVTNIITSKELLQTKLKDIVSLVPRLRHIITVDGKPPTWSEFPKGVIVHTMAAVQALGVKADVDKKAHSKPLPSDIAVIMYTSGSTGIPKGVMISHSNIIASITGMARRIPRLGEEDVYIGYLPLAHVLELSAELVCLSHGCRIGYSSPQTLADQSSKIKKGSKGDTSVLKPTLMAAVPEIMDRIYKNVMNKVNEMSAFQRNLFILAYNYKMEQISKGCSTPLCDRFVFRNVRRLLGGNIRVLLCGGAPLSATTQRFMNICFCCPVGQGYGLTESTGAGTITEVWDYNTGRVGAPLVCCEIKLKNWEEGGYFNTDKPHPRGEILIGGQNVTMGYYKNEAKTKADFFEDENGQRWLCTGDIGEFDPDGCLKIIDRKKDLVKLQAGEYVSLGKVEAALKNLPLIDNICAYANSYHSYVIGFVVPNQKELTELARTKGFNGTWEELCNSSEMENEVLKVLSEAAISASLEKFEIPLKIRLSPDPWTPETGLVTDAFKLKRKELKTHYQADIERMYGRK"}},
  "substrate": "CCCCC/C=C\\C/C=C\\C/C=C\\C/C=C\\CCCC(=O)O",
  "test": "radiometric acyl-CoA synthetase assay",
  "assay_type": "biochemical, Rattus norvegicus",
  "conditions": "ATP, Mg2+",
  "data": [
    {"protein": "B1", "values": [
      {"measurement": "Km", "result": 48, "unit": "µM"},
      {"measurement": "Vmax", "result": 0.008, "unit": "µmol/min/mg"},
      {"measurement": "Vmax/Km", "result": "3e-05", "unit": "min⁻¹"}
    ]}
  ]
}
